Assay results from patent US20220273789A1.

Assays:
[1] = molecular target: Recombinant HSV1 gEgI protein (coating antigen of the competitive ELISA, produced in ExpiCHO) (HSV1 strain KOS321; HSV1 strain 17); test: ED50 of the competitive ELISA (competitor: human IgG); GM of N=5 mice, 21PII (D49); 5 is the value given to negative samples (first dilution/2), below the positivity threshold (1/10)
[2] = molecular target: Recombinant HSV2 gEgI protein (coating antigen of the competitive ELISA, produced in ExpiHEK293F) (HSV2 strain SD90e) (UniProt P89475); test: ED50 of the competitive ELISA (competitor: human IgG); GM of N=4 mice, 14PIII (D42); 5 is the value given to negative samples (first dilution/2), below the positivity threshold (1/10)
[3] = molecular target: Recombinant HSV1 gEgI protein (coating antigen of the competitive ELISA, produced in ExpiCHO) (HSV1 strain KOS321; HSV1 strain 17); test: as above
[4] = molecular target: Recombinant HSV2 gEgI protein (coating antigen of the competitive ELISA, produced in ExpiHEK293F) (HSV2 strain SD90e) (UniProt P89475); test: ED50 of the competitive ELISA (competitor: human IgG); GM of N=4 mice, 21PIII (D63); bar below the positivity threshold (1/10), 5 being the first dilution/2
human IgG (human) = test: BLI (Octet), His-tagged gEgI immobilised on Ni-NTA sensor, response to human IgG

Row | Substance | hIgG binding response (human IgG (human)) | other results
1 | NaCl150mM |  | ED50 titer (geometric mean) (reciprocal dilution) [1]: 5; ED50 titer (geometric mean) (reciprocal dilution) [2]: 5; ED50 (geometric mean) (reciprocal dilution) [3]: 5; ED50 titer (geometric mean) (reciprocal dilution) [4]: 5
2 | PN97 (HSV2-gE_P318G_Δ319-320_gI) (from UniProt P89475 21-416; P06764 21-256) (receptor) | 0.146 nm | 
3 | PN98 (HSV2-gE_P318K_Δ319-320_gI) (from UniProt P89475 21-416; P06764 21-256) (receptor) | 0.135 nm | 
4 | PN99 (HSV2-gE_P317R-P318E_Δ319-320_gI) (from UniProt P89475 21-416; P06764 21-256) (receptor) | 0.0795 nm | 
5 | PN100 (HSV2-gE_P317R-P318G_Δ319-320_gI) (from UniProt P89475 21-416; P06764 21-256) (receptor) | 0.0877 nm | 
6 | PN101 (HSV2-gE_P317G-P318K_Δ319-320_gI) (from UniProt P89475 21-416; P06764 21-256) (receptor) | 0.0868 nm | 
